{
  "source": "patent EP1207198A1",
  "biological_target": "human brain-derived G protein-coupled receptor protein ZAQ (human)",
  "assay": "cell-based or functional assay",
  "data": [
    {"substance": "Human type ZAQ ligand mature peptide (type G, 86 amino acid residues)", "values": [
      {"measurement": "increase in the intracellular calcium ion concentration (FLIPR), EC50", "result": 0.096, "unit": "nM"}
    ]}
  ]
}
